Drawing on patent US6461841B2, “L-amino acid oxidase from Rhodococcus species” (Degussa AG, priority 2000, dated 2002), this text covers Km and Vmax for one protein.

Where “and” joins values, the source holds several entries; their conditions need not be identical. Equal values may be shown once.

Holding throughout (experiment): purified protein, by the assay type
Settings in all cases: other: 0.2 M TEA-HCl buffer, pH 7.6, 30° C.

Substrate in series [1]: N=C(N)NCCC[C@H](N)C(=O)O
The format is biochemical. The method, then:
(§1) To determine the kinetic constants, the reaction speed of oxidation was studied at different concentrations of amino acid and for different L-amino acids, under the following conditions (tests in microtiter plates):
(§2) 0.2 M TEA-HCl buffer, pH 7.6; 0.2 mg/mL o-dianisidine; 25 U/mL POX; L-amino acid oxidase in limiting amounts; varying concentrations of the different L-amino acids. Activity measurement was conducted by photometry at 450 nm and 30° C.
(§3) The kinetic constants Vmax.

Substrate in series [2]: N[C@@H](Cc1ccccc1)C(=O)O
The format is biochemical. The method, then: as §1, §2, §3

Substrate in series [3]: CSCC[C@H](N)C(=O)O
It is filed as biochemical. How it is done: as §1, §2, §3

Substrate in series [4]: NCCCC[C@H](N)C(=O)O
The format is biochemical. The method, then: as §1, §2, §3

Substrate in series [5]: C[C@H](N)C(=O)O
It is filed as biochemical. The method, then:
as §1, §2, §3

Substrate in series [6]: NC(=O)NCCC[C@H](N)C(=O)O
The format is biochemical. The method, then:
as §1, §2, §3

Substrate in series [7]: N[C@@H](CO)C(=O)O
The format is biochemical. The method, then:
as §1, §2, §3

Substrate in series [8]: NC(=O)C[C@H](N)C(=O)O
The format is biochemical. How it is done: as §1, §2, §3

Substrate in series [9]: NC(=O)CC[C@H](N)C(=O)O
Substrate in series [10]: CC(C)[C@H](N)C(=O)O
Substrate in series [11]: NCCC[C@H](N)C(=O)O
Substrate in series [12]: CC(C)C[C@H](N)C(=O)O
Substrate in series [13]: CC[C@H](C)[C@H](N)C(=O)O

B1: L-amino acid oxidase from Rhodococcus opacus (Rhodococcus opacus) (protein)
chain: AGDLIGKVKGSHSVVVLGGGPAGLCSAFELQKAGYKVTVLEARTRPGGRVWTARGGSEETDLSGETQKCTFSEGHFYNVGATRIPQSHITLDYCRELGVEIQGFGNQNANTFVNYQSDTSLSGQSVTYRAAKADTFGYMSELLKKATDQGALDQVLSREDKDALSEFLSDFGDLSDDGRYLGSSRRGYDSEPGAGLNFGTEKKPFAMQEVIRSGIGRNFSFDFGYDQAMMMFTPVGGMDRIYYAFQDRIGTDNIVFGAEVTSMKNVSEGVTVEYTAGGSKKSITADYAICTIPPHLVGRLQNNLPGDVLTALKAAKPSSSGKLGIEYSRRWWETEDRIYGGASNTDKDISQIMFPYDHYNSDRGVVVAYYSSGKRQEAFESLTHRQRLAKAIAEGSEIHGEKYTRDISSSFSGSWRRTKYSESAWANWAGSGGSHGGAATPEYEKLLEPVDKIYFAGDHLSNAIAWQHGALTSARDVVTHIHERVAQEA
notes: made in house; host or cells: Rhodococcus opacus DSM 43250, the natural producer; purified from crude cell extract, not recombinant
The term Km denotes the concentration of substrate that gives half-maximal velocity. A word on the Vmax: it is the rate approached at saturating substrate. For the protein B1, the Km is 70 µM in series [1]; 19 µM in series [2]; 39 µM in series [3]; 15 µM in [4]; 274 µM in series [5]; 26 µM in series [6]. Also, the Km was found to be 1360 µM in series [7]; 28 µM in series [8]; 3730 µM in [10]; 34 µM in series [11]; 28 µM in [12]; 5110 µM in series [13]. Further, the Vmax in series [1] was 8.12 µmol/min/mg; in series [2] it was 5.64 µmol/min/mg; in series [4] it was 3.56 µmol/min/mg; in [5], 4.27 µmol/min/mg; in series [6] it was 5.47 µmol/min/mg; in series [7], 4.36 µmol/min/mg. For the same protein, the maximal velocity (Vmax) is 5.37 µmol/min/mg in series [8]; 5.06 µmol/min/mg and 2.32 µmol/min/mg in series [9]; 1.93 µmol/min/mg in series [10]; 7.48 µmol/min/mg in series [11]; 6.45 µmol/min/mg in [12]; 2.84 µmol/min/mg in [13].
